Experimental data: patent US20250277026A1

Tests used:
[1] = molecular target: human Claudin-3 (human) (UniProt O15551); assay: FACS, Claudin-3-CHO-K1 cells, serial dilution of the antibody, MFI
[2] = molecular target: human Claudin-3 (human) (UniProt O15551); assay: FACS, Claudin-3-CHO-K1 cells, 5 µg/ml
[3] = molecular target: human Claudin-3 (human) (UniProt O15551); assay: FACS, MCF7 cells (endogenous CLDN3 and CLDN4)
[4] = molecular target: human Claudin-4 (human) (UniProt O14493); assay: FACS, Claudin-4-CHO-K1 cells
[5] = molecular target: human Claudin-4 (human) (UniProt O14493); assay: FACS, Claudin-4-CHO-K1 cells, serial dilution of the antibody, MFI
[6] = molecular target: human Claudin-4 (human) (UniProt O14493); assay: FACS, MCF7 cells (endogenous CLDN3 and CLDN4)
[7] = molecular target: human Claudin-3 (human) (UniProt O15551); assay: FACS, Claudin-3-CHO-K1 cells (data not shown in the figures)

human Claudin-3 (human), sequence (O15551 whole entry): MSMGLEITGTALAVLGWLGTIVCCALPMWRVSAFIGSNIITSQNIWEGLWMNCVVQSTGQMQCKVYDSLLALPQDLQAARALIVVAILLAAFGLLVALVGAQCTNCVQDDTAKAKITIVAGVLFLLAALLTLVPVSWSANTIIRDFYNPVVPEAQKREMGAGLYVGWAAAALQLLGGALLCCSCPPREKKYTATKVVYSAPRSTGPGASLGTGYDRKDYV
human Claudin-4 (human), sequence (O14493 whole entry): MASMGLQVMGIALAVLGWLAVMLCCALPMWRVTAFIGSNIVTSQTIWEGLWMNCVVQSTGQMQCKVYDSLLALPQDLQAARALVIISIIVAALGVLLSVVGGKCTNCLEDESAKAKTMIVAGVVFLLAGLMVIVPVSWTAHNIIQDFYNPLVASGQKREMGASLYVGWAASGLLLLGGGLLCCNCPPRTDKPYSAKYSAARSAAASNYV

Q: How did the EC50 (read off the curve) [1] turn out when anti-claudin 3 antibody MAB4620 (R&D) was run?
A: The EC50 (read off the curve) was 0.6 nM.

Q: What about the fold MFI over isotype control [2] of the same substance?
A: The fold MFI over isotype control was 61 fold.

Q: And the fold MFI over isotype control [3]?
A: Its fold MFI over isotype control is 20 fold.

Q: How did the fold MFI over isotype control [4] turn out when anti-Claudin-4 antibody MAB4219 (R&D) was run?
A: Its fold MFI over isotype control is 33 fold.

Q: What about the EC50 (read off the curve) [5] of the same substance?
A: The EC50 (read off the curve) was 2 nM.

Q: And the fold MFI over isotype control [6]?
A: Its fold MFI over isotype control is 15 fold.

Q: What about the fold MFI over isotype control [7] of the same substance?
A: The fold MFI over isotype control was 9.7 fold.
